According to the supplement of paper PMC10567573:

B1: DYRK1B (parent)
chain: KKVLNHGYDDDNHDYIVRSGERWL
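Note: lentivirally expressed fusions sorted by FACS into six bins by GFP to DsRed ratio, PSI derived from sequencing read proportions per bin multiplied by bin number.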

Variants of: B1
Assay: protein stability index of a GFP-peptide fusion (GPS, HEK-293T) (PSI 1-6); higher = more stable
Conditions: c terminus: a fixed tail appended
I16A gave a protein stability index of 3.73.
For I16L, the protein stability index was 3.09.
I16W showed a protein stability index of 2.71.
Work on I16D yielded a protein stability index of 3.84.
For I16Y, the protein stability index was 3.89.
I16Q gave a protein stability index of 3.58.
E21H showed a protein stability index of 2.4.
E21L showed a protein stability index of 3.02.
E21S showed a protein stability index of 2.42.
E21G gave a protein stability index of 2.57.
L4I gave a protein stability index of 3.33.
L4W showed a protein stability index of 3.1.
Variant L4V has a protein stability index of 2.58.
L4R gave a protein stability index of 3.38.
In the case of L4T, the protein stability index is reported as 3.86.
For N12L, the protein stability index was 2.3.
Variant N12I has a protein stability index of 2.47.
N12V showed a protein stability index of 2.64.
N12W showed a protein stability index of 2.01.
For N12Y, the protein stability index was 2.17.
Work on N12G yielded a protein stability index of 2.81.
With N12H the protein stability index was 2.65.
With N12R the protein stability index was 3.27.
Variant D14T has a protein stability index of 2.79.
In the case of D14C, the protein stability index is reported as 2.64.
D14Y gave a protein stability index of 2.55.
With D14I the protein stability index was 2.37.
Variant D14H has a protein stability index of 3.03.
For D14W, the protein stability index was 1.85.
Variant D14K has a protein stability index of 3.
Work on D14A yielded a protein stability index of 2.78.
For D14N, the protein stability index was 3.12.
Work on D14E yielded a protein stability index of 3.03.
D14G showed a protein stability index of 2.71.
D10L gave a protein stability index of 2.43.
Work on D10Y yielded a protein stability index of 3.06.
With D10V the protein stability index was 2.44.
In the case of D10P, the protein stability index is reported as 2.81.
D10H showed a protein stability index of 2.75.
For D10F, the protein stability index was 1.83.
In the case of D10K, the protein stability index is reported as 3.16.
For D10Q, the protein stability index was 2.99.
For G20M, the protein stability index was 2.13.
Variant G20R has a protein stability index of 3.54.
With G20K the protein stability index was 3.32.
Work on G20I yielded a protein stability index of 2.73.
Variant G20Y has a protein stability index of 2.23.
R22W gave a protein stability index of 2.06.
With R22A the protein stability index was 3.15.
With R22D the protein stability index was 3.44.
R22C gave a protein stability index of 2.85.
For R22M, the protein stability index was 2.57.
Work on R22G yielded a protein stability index of 3.19.
Variant R22Q has a protein stability index of 3.53.
For R22K, the protein stability index was 3.29.
With R22I the protein stability index was 2.17.
In the case of R22P, the protein stability index is reported as 3.16.
Variant R22V has a protein stability index of 2.6.
For H6S, the protein stability index was 3.22.
For H6N, the protein stability index was 3.38.
H6A gave a protein stability index of 2.81.
With H6K the protein stability index was 3.52.
In the case of H6D, the protein stability index is reported as 3.48.
For H6P, the protein stability index was 3.27.
For H6C, the protein stability index was 2.38.
With K1R the protein stability index was 2.43.
K1I showed a protein stability index of 2.28.
In the case of K1C, the protein stability index is reported as 2.38.
Work on K1V yielded a protein stability index of 2.29.
Work on K1H yielded a protein stability index of 3.39.
With L24S the protein stability index was 3.58.
Variant L24R has a protein stability index of 3.55.
L24F showed a protein stability index of 2.81.
Variant L24K has a protein stability index of 3.85.
In the case of L24A, the protein stability index is reported as 3.37.
Work on L24W yielded a protein stability index of 2.85.
For V17L, the protein stability index was 3.07.
V17H showed a protein stability index of 3.46.
V17S showed a protein stability index of 3.36.
For V17N, the protein stability index was 3.65.
V17Y showed a protein stability index of 2.94.
With V17Q the protein stability index was 3.57.
V17T showed a protein stability index of 2.97.
For V17I, the protein stability index was 2.55.
In the case of V17D, the protein stability index is reported as 3.56.
Y15V gave a protein stability index of 3.38.
Variant Y15K has a protein stability index of 3.56.
Y15P showed a protein stability index of 3.6.
With Y15D the protein stability index was 4.19.
With Y15A the protein stability index was 3.79.
Y15L showed a protein stability index of 3.05.
Y15R showed a protein stability index of 3.72.
Y15C gave a protein stability index of 3.58.
D9H gave a protein stability index of 2.74.
Variant D9E has a protein stability index of 3.96.
For D9S, the protein stability index was 2.34.
With D9V the protein stability index was 2.67.
Variant D9M has a protein stability index of 2.83.
With D9Q the protein stability index was 2.94.
H13Y showed a protein stability index of 2.64.
With H13A the protein stability index was 3.06.
Variant H13F has a protein stability index of 1.95.
In the case of H13T, the protein stability index is reported as 3.35.
In the case of H13C, the protein stability index is reported as 2.54.
H13D showed a protein stability index of 3.73.
With H13E the protein stability index was 4.24.
Work on H13V yielded a protein stability index of 2.96.
For H13W, the protein stability index was 2.44.
D11E showed a protein stability index of 3.18.
Work on D11R yielded a protein stability index of 2.37.
D11Y gave a protein stability index of 2.48.
D11K showed a protein stability index of 2.92.
In the case of D11C, the protein stability index is reported as 2.55.
With N5A the protein stability index was 2.88.
For N5F, the protein stability index was 2.7.
Work on N5D yielded a protein stability index of 3.41.
In the case of N5T, the protein stability index is reported as 2.57.
Variant N5I has a protein stability index of 2.82.
In the case of N5W, the protein stability index is reported as 2.72.
With N5R the protein stability index was 2.92.
V3Q gave a protein stability index of 3.08.
Work on V3M yielded a protein stability index of 3.04.
Work on V3R yielded a protein stability index of 2.83.
For V3H, the protein stability index was 3.12.
G7W showed a protein stability index of 2.74.
For G7E, the protein stability index was 3.64.
In the case of G7N, the protein stability index is reported as 3.23.
Work on G7T yielded a protein stability index of 3.53.
Work on G7P yielded a protein stability index of 3.15.
With G7K the protein stability index was 3.3.
G7L showed a protein stability index of 2.24.
Variant W23L has a protein stability index of 3.88.
Work on W23Q yielded a protein stability index of 4.2.
In the case of W23T, the protein stability index is reported as 4.3.
With W23C the protein stability index was 3.8.
Work on W23V yielded a protein stability index of 4.31.
For R18N, the protein stability index was 2.9.
R18E gave a protein stability index of 3.75.
R18W gave a protein stability index of 2.38.
Work on R18H yielded a protein stability index of 3.4.
R18Y showed a protein stability index of 2.48.
Work on R18C yielded a protein stability index of 2.82.
Variant R18V has a protein stability index of 2.67.
Variant R18I has a protein stability index of 2.62.
In the case of R18F, the protein stability index is reported as 2.39.
For S19R, the protein stability index was 2.78.
S19N showed a protein stability index of 3.22.
S19T showed a protein stability index of 3.06.
In the case of S19G, the protein stability index is reported as 3.25.
Y8R gave a protein stability index of 4.28.
Work on Y8Q yielded a protein stability index of 3.77.
Variant Y8N has a protein stability index of 4.15.
For Y8K, the protein stability index was 3.58.
In the case of Y8W, the protein stability index is reported as 2.74.
Variant Y8G has a protein stability index of 3.56.
Work on Y8I yielded a protein stability index of 3.27.
Work on Y8T yielded a protein stability index of 3.74.
K2T gave a protein stability index of 3.53.
K2W gave a protein stability index of 2.12.
Variant K2Q has a protein stability index of 3.32.
In the case of K2M, the protein stability index is reported as 2.86.
K2N showed a protein stability index of 3.79.
K2G gave a protein stability index of 3.6.
Variant K2C has a protein stability index of 1.9.
In the case of K2A, the protein stability index is reported as 3.33.
K2Y showed a protein stability index of 2.52.
For K2R, the protein stability index was 3.13.
